This note sets out measurements from patent US20150239968A1.

The Kd is the free concentration of one partner at which half of the binding sites on the other are occupied at equilibrium, for simple one-to-one binding. A word on the koff: it is a measure of how fast the partners let go of each other. By kon is commonly meant the second-order rate constant of association.

The target in assay [1] is GDF-15 produced by the prostate cancer cell line LnCap (UniProt Q99988). Briefly: cell-based or functional assay.
The target of assay [2] is recombinant mature human GDF-15 protein (as expressed in Baculovirus-transfected insect cells) (human) (UniProt Q99988). Briefly: SPR (Biorad ProteOn XPR36, GLC chip), KD=koff/kon, GDF-15 from insect cells immobilized.
Assay [3] deals with recombinant mature human GDF-15 protein derived from expression in E. coli (human) (UniProt Q99988). Briefly: SPR (Biorad ProteOn XPR36, GLC chip), GDF-15 from E. coli immobilized, antibody as analyte.
Assay [4] deals with recombinant mature human GDF-15 protein (as expressed in Baculovirus-transfected insect cells) (human) (UniProt Q99988). Briefly: SPR (Biorad ProteOn XPR36, GLC chip), GDF-15 from insect cells immobilized, antibody as analyte, 1:1 Langmuir, 25° C.

In assay [1], “monoclonal anti-human GDF-15 mAb-B1-23 (antibody)” had a proliferation of LnCap cells (Alamar Blue assay) after 72 hrs of 30%. Moreover, the Kd in assay [2] was 790 pM. In addition, in assay [3], the deviation of rate constants against GDF-15 derived from insect cells was 45% and the fold difference of affinity values against GDF-15 derived from insect cells is under 2 fold. For the same substance, in assay [4], the koff came out at 0.00043 s⁻¹ and the on-rate constant (kon) came out at 540000 M⁻¹ s⁻¹.
